In publication PMC3876041, “Screening of Peptide Ligands for Pyrroloquinoline Quinone Glucose Dehydrogenase Using Antagonistic Template-Based Biopanning” (International Journal of Molecular Sciences, 2013):
No end group written: not given here.

Assays:
[1] = target: T1, DEE-His (His-tagged V453D-Q454E-K455E GDH-B) (Acinetobacter calcoaceticus, UniProt P13650, K455E/Q454E/V453D); test: SPR (BIAcore X) binding of immobilized synthesized peptides, DEE-His as analyte; conditions: peptide on CM5 chip (amine coupling), analyte 5 nM to 90 μM in 10 mM MOPS–NaOH pH 7.0, less than 20 RU at any analyte concentration = not binding, read-out: Kd against DEE-His
T1 construct: 6-His (C); made in house
T1 sequence (P13650 25-478 V453D/Q454E/K455E): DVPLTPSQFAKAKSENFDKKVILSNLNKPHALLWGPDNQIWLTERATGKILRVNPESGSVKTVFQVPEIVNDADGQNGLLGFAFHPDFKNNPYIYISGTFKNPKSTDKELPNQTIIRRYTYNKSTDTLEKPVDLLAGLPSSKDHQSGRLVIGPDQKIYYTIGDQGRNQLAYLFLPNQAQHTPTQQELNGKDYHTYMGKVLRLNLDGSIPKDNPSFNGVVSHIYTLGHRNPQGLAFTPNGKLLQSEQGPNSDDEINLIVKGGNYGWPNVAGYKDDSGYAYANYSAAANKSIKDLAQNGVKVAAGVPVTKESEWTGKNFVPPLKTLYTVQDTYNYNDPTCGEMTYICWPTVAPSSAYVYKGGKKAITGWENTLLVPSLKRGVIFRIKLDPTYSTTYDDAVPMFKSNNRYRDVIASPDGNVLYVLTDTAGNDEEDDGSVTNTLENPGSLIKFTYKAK
Excerpt: (§1) The purity was greater than 95%.

HI (Y367H-N452I GDH-B) = target: T2, HI (Y367H-N452I GDH-B) (Acinetobacter calcoaceticus, UniProt P13650, N452I/Y367H); test: SPR (BIAcore X) binding of immobilized synthesized peptides, HI as analyte; conditions: peptide on CM5 chip (amine coupling), analyte 5 nM to 90 μM in 10 mM MOPS–NaOH pH 7.0, less than 20 RU at any analyte concentration = not binding, read-out: Kd against HI
T2 construct: made in house; host or cells: Escherichia coli PP2418 / pTrc99A
T2 sequence (P13650 25-478 Y367H/N452I): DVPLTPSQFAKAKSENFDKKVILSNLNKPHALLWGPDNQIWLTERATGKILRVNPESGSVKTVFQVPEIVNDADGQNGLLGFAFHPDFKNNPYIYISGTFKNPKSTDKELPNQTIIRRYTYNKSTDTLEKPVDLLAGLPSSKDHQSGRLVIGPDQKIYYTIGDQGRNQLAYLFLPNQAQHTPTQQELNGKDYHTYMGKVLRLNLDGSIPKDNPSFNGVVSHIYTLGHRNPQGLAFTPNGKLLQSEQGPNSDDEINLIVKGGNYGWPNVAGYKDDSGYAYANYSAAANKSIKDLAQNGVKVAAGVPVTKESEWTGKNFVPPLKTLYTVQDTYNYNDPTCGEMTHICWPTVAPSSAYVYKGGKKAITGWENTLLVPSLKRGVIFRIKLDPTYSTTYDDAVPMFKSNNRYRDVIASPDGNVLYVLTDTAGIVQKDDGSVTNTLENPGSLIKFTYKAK
Excerpt: as §1

[2] = decrease vs wild-type GDH-B, ref [36]; cited from earlier work
Excerpt: We, and other research groups, have been engaged in constructing of variety of mutant GDH-Bs in order to develop an ideal enzyme for glucose monitoring. For example, we have reported the Asn452Thr GDH-B mutant, showing approximately 50% lower activity for lactose and maltose than the wild-type GDH-B [36].

[3] = Kinetic parameters of GDH-B and mutant enzymes; assay type: biochemical
Description: GDH-B activity was measured using 0.06 mM 2,6-dichlorophenolindophenol (DCIP) and 0.6 mM phenazine methosulfate (PMS) following 30 min pre-incubation in 10 mM MOPS–NaOH buffer (pH 7.0) containing 1 μM PQQ and 1 mM CaCl2 at room temperature (25 °C). The enzyme activity was determined by measuring the decrease in absorbance of DCIP at 600 nm. For the inhibition assay, the residual activity of 0.7 nM GDH-B for 50 mM D-glucose was measured following 1 h incubation with various concentrations of each peptide. GDH-B activity in the absence of peptide was defined as 100%.

[4] = target: T3, wild-type water-soluble pyrroloquinoline quinone (PQQ) glucose dehydrogenase (GDH-B) (UniProt P13650 25-478); test: enzyme inhibition assay; residual activity of 0.7 nM GDH-B for 50 mM D-glucose after 1 h incubation with various concentrations of peptide; DCIP/PMS, 10 mM MOPS-NaOH pH 7.0, PQQ, CaCl2; non-competitive dominant mixed inhibition; conditions: both partners purified
T3 construct: water-soluble PQQ-dependent glucose dehydrogenase (GDH-B); structural gene in pTrc99A; Produced as apo-form in E. coli; PQQ and Ca2+ are added for activity assays; also called wild-type GDH-B; W.T; source: E. coli PP2418 (pTrc99A), purified as previously described (cation exchange chromatography)
T3 sequence (looked up): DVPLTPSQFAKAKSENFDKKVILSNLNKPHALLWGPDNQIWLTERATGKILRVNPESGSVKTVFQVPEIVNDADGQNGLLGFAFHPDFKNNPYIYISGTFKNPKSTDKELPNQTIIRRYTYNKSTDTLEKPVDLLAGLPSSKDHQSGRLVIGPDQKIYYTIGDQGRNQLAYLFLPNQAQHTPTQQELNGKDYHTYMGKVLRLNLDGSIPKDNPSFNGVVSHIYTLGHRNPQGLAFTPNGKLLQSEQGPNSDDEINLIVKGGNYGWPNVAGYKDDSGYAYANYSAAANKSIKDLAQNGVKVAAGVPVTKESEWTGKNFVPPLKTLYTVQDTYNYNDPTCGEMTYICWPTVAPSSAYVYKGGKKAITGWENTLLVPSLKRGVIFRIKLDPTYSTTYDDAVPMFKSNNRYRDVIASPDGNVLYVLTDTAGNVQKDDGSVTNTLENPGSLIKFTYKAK

[5] = target: T3, wild-type water-soluble …; test: SPR; BIAcore X; peptide immobilised on CM5 chip by amine coupling (320-2130 RU); analytes GDH-B, DEE-His or HI, five concentrations (5 nM to 90 uM) in 10 mM MOPS-NaOH pH 7.0, 10 uL/min to plateau; Kd from plateau RU against concentration (Scatchard); less than 20 RU at any concentration judged as not binding; conditions: both partners purified
Y367H-N452I GDH-B (HI) = target: T4, Y367H-N452I GDH-B (HI) (UniProt P13650 25-478, Y367H | N452I); test: SPR; conditions: both partners purified
T4 construct: also called antagonistic template; source: E. coli PP2418 (pTrc99A), soluble, purified (Resource S cation exchange, Superdex 200 size exclusion chromatography)
T4 sequence: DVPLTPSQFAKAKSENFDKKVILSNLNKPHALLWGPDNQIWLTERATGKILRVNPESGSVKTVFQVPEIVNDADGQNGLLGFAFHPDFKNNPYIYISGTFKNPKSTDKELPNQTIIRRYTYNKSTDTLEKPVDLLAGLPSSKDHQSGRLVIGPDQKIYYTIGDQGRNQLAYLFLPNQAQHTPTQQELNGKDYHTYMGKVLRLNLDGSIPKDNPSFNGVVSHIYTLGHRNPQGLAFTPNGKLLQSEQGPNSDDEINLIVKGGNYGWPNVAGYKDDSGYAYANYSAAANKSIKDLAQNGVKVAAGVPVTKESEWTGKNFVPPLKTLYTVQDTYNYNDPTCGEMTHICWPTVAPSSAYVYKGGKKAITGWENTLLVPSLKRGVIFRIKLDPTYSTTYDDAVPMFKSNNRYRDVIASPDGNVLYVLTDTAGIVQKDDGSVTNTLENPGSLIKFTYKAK

[6] = DCIP/PMS assay, 10 mM MOPS–NaOH pH 7.0, 1 μM PQQ, 1 mM CaCl2, 25 °C

## ELITNSETTQWF [HI3-2]
[1]
  Kd: > 90 µM

## LGDSSNSQVSLN [DEE4–5]
[1]
  Kd: > 90 µM
HI (Y367H-N452I GDH-B)
  Kd: > 90 µM

## NSTHHHHFATIW [DEE4–10]
[1]
  Kd: > 90 µM
HI (Y367H-N452I GDH-B)
  Kd: > 90 µM

## SDLSPIQSLSAI [DEE4–6]
[1]
  Kd: > 90 µM

B1: Asn452Thr GDH-B mutant: previously reported Asn452Thr GDH-B mutant, ref [36] (protein, UniProt P13650 25-478, looked up, variant N452T)
Quinoprotein glucose …: DVPLTPSQFAKAKSENFDKKVILSNLNKPHALLWGPDNQIWLTERATGKILRVNPESGSVKTVFQVPEIVNDADGQNGLLGFAFHPDFKNNPYIYISGTFKNPKSTDKELPNQTIIRRYTYNKSTDTLEKPVDLLAGLPSSKDHQSGRLVIGPDQKIYYTIGDQGRNQLAYLFLPNQAQHTPTQQELNGKDYHTYMGKVLRLNLDGSIPKDNPSFNGVVSHIYTLGHRNPQGLAFTPNGKLLQSEQGPNSDDEINLIVKGGNYGWPNVAGYKDDSGYAYANYSAAANKSIKDLAQNGVKVAAGVPVTKESEWTGKNFVPPLKTLYTVQDTYNYNDPTCGEMTYICWPTVAPSSAYVYKGGKKAITGWENTLLVPSLKRGVIFRIKLDPTYSTTYDDAVPMFKSNNRYRDVIASPDGNVLYVLTDTAGTVQKDDGSVTNTLENPGSLIKFTYKAK
[2]
  lower activity for lactose than the wild-type: approximately 50%
  lower activity for maltose than the wild-type: approximately 50%

B2: GDH-B: water-soluble pyrroloquinoline quinone (PQQ) dependent glucose dehydrogenase, wild type (protein)
chain: DVPLTPSQFAKAKSENFDKKVILSNLNKPHALLWGPDNQIWLTERATGKILRVNPESGSVKTVFQVPEIVNDADGQNGLLGFAFHPDFKNNPYIYISGTFKNPKSTDKELPNQTIIRRYTYNKSTDTLEKPVDLLAGLPSSKDHQSGRLVIGPDQKIYYTIGDQGRNQLAYLFLPNQAQHTPTQQELNGKDYHTYMGKVLRLNLDGSIPKDNPSFNGVVSHIYTLGHRNPQGLAFTPNGKLLQSEQGPNSDDEINLIVKGGNYGWPNVAGYKDDSGYAYANYSAAANKSIKDLAQNGVKVAAGVPVTKESEWTGKNFVPPLKTLYTVQDTYNYNDPTCGEMTYICWPTVAPSSAYVYKGGKKAITGWENTLLVPSLKRGVIFRIKLDPTYSTTYDDAVPMFKSNNRYRDVIASPDGNVLYVLTDTAGNVQKDDGSVTNTLENPGSLIKFTYKAK
[3]; [6]
  Km: 25 mM
  Vmax: 5200 U/mg protein

B3: HI: GDH-B mutant Y367H-N452I, antagonistic template (protein)
chain: DVPLTPSQFAKAKSENFDKKVILSNLNKPHALLWGPDNQIWLTERATGKILRVNPESGSVKTVFQVPEIVNDADGQNGLLGFAFHPDFKNNPYIYISGTFKNPKSTDKELPNQTIIRRYTYNKSTDTLEKPVDLLAGLPSSKDHQSGRLVIGPDQKIYYTIGDQGRNQLAYLFLPNQAQHTPTQQELNGKDYHTYMGKVLRLNLDGSIPKDNPSFNGVVSHIYTLGHRNPQGLAFTPNGKLLQSEQGPNSDDEINLIVKGGNYGWPNVAGYKDDSGYAYANYSAAANKSIKDLAQNGVKVAAGVPVTKESEWTGKNFVPPLKTLYTVQDTYNYNDPTCGEMTHICWPTVAPSSAYVYKGGKKAITGWENTLLVPSLKRGVIFRIKLDPTYSTTYDDAVPMFKSNNRYRDVIASPDGNVLYVLTDTAGIVQKDDGSVTNTLENPGSLIKFTYKAK
[3]; [6]
  Km: 18 mM
  Vmax: 170 U/mg protein

B4: GB-His: GDH-B fused with 6-His tag to the C-terminal (protein)
chain: DVPLTPSQFAKAKSENFDKKVILSNLNKPHALLWGPDNQIWLTERATGKILRVNPESGSVKTVFQVPEIVNDADGQNGLLGFAFHPDFKNNPYIYISGTFKNPKSTDKELPNQTIIRRYTYNKSTDTLEKPVDLLAGLPSSKDHQSGRLVIGPDQKIYYTIGDQGRNQLAYLFLPNQAQHTPTQQELNGKDYHTYMGKVLRLNLDGSIPKDNPSFNGVVSHIYTLGHRNPQGLAFTPNGKLLQSEQGPNSDDEINLIVKGGNYGWPNVAGYKDDSGYAYANYSAAANKSIKDLAQNGVKVAAGVPVTKESEWTGKNFVPPLKTLYTVQDTYNYNDPTCGEMTYICWPTVAPSSAYVYKGGKKAITGWENTLLVPSLKRGVIFRIKLDPTYSTTYDDAVPMFKSNNRYRDVIASPDGNVLYVLTDTAGNVQKDDGSVTNTLENPGSLIKFTYKAK
modifications: left off: His6, C-terminal, kept
notes: GDH-B fused with 6-His tag to the C-terminal
[3]; pH 7
  Km: 24 mM
  Vmax: 3950 U/mg protein

B5: DEE4–10 synthesized 12-mer peptide (peptide)
peptide: NSTHHHHFATIW
notes: 12-mer selected from the Ph.D.-12 phage display peptide library; Immobilised on a CM5 chip by amine coupling in the SPR; also called HI4–6; source: synthetic peptide, bought: Sigma Aldrich Japan
[4]
  Ki: 7.4 µM
[5]
  Kd: 0.7 µM

B6: DEE4–5 synthesized 12-mer peptide (peptide)
peptide: LGDSSNSQVSLN
notes: 12-mer selected from the Ph.D.-12 phage display peptide library; Immobilised on a CM5 chip by amine coupling in the SPR; also called DEE3-4; source: synthetic peptide, bought: Sigma Aldrich Japan
[5]
  Kd: 13 µM

B7: HI3-2 synthesized 12-mer peptide (peptide)
peptide: ELITNSETTQWF
notes: 12-mer selected from the Ph.D.-12 phage display peptide library; Immobilised on a CM5 chip by amine coupling in the SPR; source: synthetic peptide, bought: Sigma Aldrich Japan
Y367H-N452I GDH-B (HI)
  Kd: 88 µM
[5]
  Kd: 2.5 µM

B8: DEE4–6 synthesized 12-mer peptide (peptide)
peptide: SDLSPIQSLSAI
notes: 12-mer selected from the Ph.D.-12 phage display peptide library; Immobilised on a CM5 chip by amine coupling in the SPR; also called DEE4–9; source: synthetic peptide, bought: Sigma Aldrich Japan
Y367H-N452I GDH-B (HI)
  Kd: 230 µM
[5]
  Kd: 2.5 µM
